Measurements as given in the nanobody polyreactivity screen of Harvey et al. (2022).

assay: yeast display, Sf9 membrane polyspecificity reagent, FACS + sequencing; frameworks hold sequencing errors
In short: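 Polyreactivity labels are assigned by the sorting gate from which each nanobody was recovered. The gates were low and high (top ~1%), set on anti-HA fluorescence for expression and streptavidin fluorescence for reagent binding. Before sorting, galactose-induced (36–48 hours) yeast display cells were stained for 1 hour at 4 °C with 10% biotinylated, detergent-solubilized Sf9 membrane reagent.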

Row | Sequence | polyreactivity (PSR sort gate)
1 | QVQHGESGGGLVQAGGRLRLICAASGSISVWYVMGWYRQAPGKERELVAAITRSGGSTFYADSVKGRFTISRDNAKNTVYLEMNSLKPEDTAVYYCAADFPSLYVWYGYGWYKYDYWGQGTQVTVSS | low polyreactivity
2 | QVQHLESGGGVVQAGGSIRLSCAASVIIFRAYAMGWYRQAPGKERELVAAITSRGGSTYYADSVKGRFTFSRDNAKNTVYLQMNSLKQEDTAVYYCNAAALADYDYWGQGTQVTLSS | low polyreactivity
3 | QVQHVDSGGGLVQAGGSLRLSCAASGRTLTVYAMGWYRQAPGKERELVAAITWRGGSTYYADSVKGRFTISRDNAKNTVYLPMNSLKPADTPVDYCAAEDYTYNGGGYEYWGQGTQVTVSS | low polyreactivity
4 | QVQHVDSRGGLVQAGGSLRLSCAASGSIVPWNDMGWYRQAPGKERQLVAAITYRGGRTYYADSVKGRFTISRDNAKNTVYLQMNSLKPEDTAVYYCATKSRRNSPRMDYWGQGTQVTVSS | high polyreactivity
5 | QVQHVESAAGLVQAGCSLRLSGAASGRIFRGYAMGWSRPAHGNEWELVAGITWGGGSTYYADSVKGRFTISRDKAKNTVYLQMNSLKPEDTAVYYCNAVRPRQWWTHFGYWGQGTQVTVSS | high polyreactivity
6 | QVQHVESAAGLVQAGGSLRLSCAASGRIFYATVMGWYRQAHGKVREFVAAIRWSGSTYYADSVKGRFTISRDNAKNTVYLQMNSLKRVDTAVYYCADEGSRWYYFFYVGGGYWGQGTQVTVSS | low polyreactivity
7 | QVQHVESAGALVQAGGSLRLSCAASRRTFYRYPMGWYRQAPGKERELVAAISSNGGSTYYADSVKGRFTISRDNGKNTVYLQMNSLKPEDTAVYYCYYYNSRLFDYWGQGTQVTVSS | high polyreactivity
8 | QVQHVESAGGLVQAGGSLRLSCAASGRTFSRYAMGWYRQAPGKERELVATITRGGSTNYADSVKGRFTISRDNAKNRVYLQMNSQKPEDTSVYYFIAGCFRYQGTLNHFYYWGQGTQVTVSS | low polyreactivity
9 | QVQHVESARGLVPAGGSLRLSCAASGFTVIRYAMGRYRQAPGKERELVAAIRGTGTSTYYADSVKGRFTISRDIAKNTVYLQLNSLKPEDTAVYYCNKVAGRSPYTRYDYWGQGTQVTVSS | low polyreactivity
10 | QVQHVESGAGIVQAGGSLRLSCAASGSTFKRYAMGWYRQAPGKERELVAAITWRGGSTYYADSVKGRFTISRDNAKNTVYLLMNSLKPDDTAVYYCASDYVYRYDYWGQGTQVTVSS | high polyreactivity
11 | QVQHVESGAGLVQAGGSLLLSCAASGRIFQKYPMGWYRQSPGKERELVAAISRGGSTYYADSVKGRFTISRDNAKNTVYLQMISLNPEDTAVYFCASTSYRRTGYNYWGQGTQVTVSS | high polyreactivity
12 | QVQHVESGAGLVQAGGSLRLSCAASGNTFTWYTRGWSRQAPGKERELVAVITSDGATYYADSVKGRFTISRDNAKNTVYLQMNSLKPEDTAVYYCNALSAEWYPEEDYWGQGTQVTVSS | low polyreactivity
13 | QVQHVESGAGLVQAGGSLRLSCAASGSTFFRANAMGLDRQEPGKERELVAAITGSGGRTYYADSVKGRFTISRDNAKNTVYLQMNSLKPEDTAVYYCATHGVSRPYDYWGPGTQVTVSS | high polyreactivity
14 | QVQHVESGGALVQAGGSLRLSCAASGFTFTRNTMGWYRQAPGKERELVAAITRGGSTNYADSVKGRFTISRDNAKNTVYLQMNSLKPEDTAVYYCNKGRNVVLVRTADDYWGQGTQVTVSS | low polyreactivity
15 | QVQHVESGGGIVQAGGSLRLSCAASGLTFVYYAMGWYRQAPGTERELVAAISSGGRTYYADSVKGRFTISRDNAKKTVYLQMNSLKPDDTAVYYCAAYGGTHYTYRYDYWGQGTQVTVSS | high polyreactivity
16 | QVQHVESGGGIVQAGGSLRLSCAASGSIFDRNAMGWYRPAPGQERELVASISWDGGNTYYADSVKGRFTISRDNSTNTVYLQMNSLKPEDTAVYYCAVDLYIWYDGYEYYYWGQGTQVTVSS | high polyreactivity
17 | QVQHVESGGGLDQAGGSLPLSCASSGSTFAYYAMGWYRQAPGKERELVASITWSGGITYYADSVKGRFTISRDNAKNTVYLQMNSLKPEETAVYYCNVVPYYGYYYWGQGSQVTVSS | low polyreactivity
18 | QVQHVESGGGLFQAGGSLRLSCAASGTTFRYYAMGWYRQAPVKERELVAYITTSGGTYYADSVKGRFTISRDNAKNTVYLQMNSLKPEDTAVDYCAARRQDYTYYRIYNFDYWGQGTQVTVSS | high polyreactivity
19 | QVQHVESGGGLGQAGGSLRLSCAASGSTFRSYAMGWYRQAPGKERELVAVISSGDSTYYADSLKGSFKISRDNAKNTVYLQMNSLKPDDTAVYYCAADSYFLVRWYGYWGQGTQVTVSS | low polyreactivity
20 | QVQHVESGGGLGQAVGSLRLSCAASGFTFARNAMGWDRQAPGQERELVAAISSSGAGTYYADSVKGRFTISRDNSKNTVYLQMNSLKPEDTAVYYCAAYSWKGYDYWGQGTQVTVSS | high polyreactivity
21 | QVQHVESGGGLLQAGGSLRLSCPASGRTFTVYALGWYRQAPGKDRELVAAFSRSGGRTYYADSVKGRFTISRDNAKNTVYLQRNSLKPEDTAVYYCAADDPYRTNDFDYWGQGTQVTVSS | high polyreactivity
22 | QVQHVESGGGLVQAGCSLRLSCAASGRIFRLYAMGWYRQARGKERELVAAISSRGGDTYADSVKGRFTISRDNAKNTVYLQMNSLKPEDTAVYYCNAVIYYPYKYGVWYYEYDYWGQGTQVTVSS | low polyreactivity

Row | Sequence | polyreactivity (PSR sort gate)
23 | QVQHVESGGGLVQAGGCLRVSCAASGRTFIYYAMGGYRPAPGKERELVAAITNRGGSTYYADSVKGRFTISRDNAQNTVYLLMNSLNPEDTAVYYCAARGKYPSASAYTYSYGYWGQGTQVTVSS | high polyreactivity
24 | QVQHVESGGGLVQAGGRLRLRCAASGSIFGTYAMGWYRQAPGKERELVARISGGGSTYYADSVKGRFTISRDNAKNTVYLQMNSLKPEDTAVYYCNVRKWAYWSHAIIYNYWGQGTQVTVSS | high polyreactivity
25 | QVQHVESGGGLVQAGGSHPLSCAASGRIFQYNALGWYRKATGKERELLAAISLSGVRTYYADSVKGRFTISRDNAKNTVYLQMNSLKPEDTAVYYCAAVRFDRARGSPYPDRVGVYSWGQGTQVTVSS | high polyreactivity
26 | QVQHVESGGGLVQAGGSLPLSCAASGFIFYNYAQRCYTQPPGKERELVAAISSGDDTTYADSVKGRFTISRDNAKNTVYLQMNSLKPDDTAVYYCNTVRSVKQQGPYGYCGQGTQVTVSS | low polyreactivity
27 | QVQHVESGGGLVQAGGSLRISCAASGFIFGPYAMGWSRKAPGKERELVAAISGRDGSTYYADSVKGRFTISRDNAKNSVYLHMNSLKPEDTAVYYCAAEVWTALYYSYYGYRYYWGQGTQVTLSS | high polyreactivity
28 | QVQHVESGGGLVQAGGSLRISCAASGSIFYYNAMGWYRQAPGKERELVAAISWGDGITYYADSVKGRFTISRDNAKNTVYLQMNSLKPEDTAVYYCAVDYYYLAYEYWGQGTQVTVSS | high polyreactivity
29 | QVQHVESGGGLVQAGGSLRISCAASGSTFPRYGKGRYRQAPGKERELVAAISSGGGRTYYADSVKGRFTISRDNAKNTVYVQMNSLKPEDTAVYYCNKRPSHWRHYIMDYWGQGTQVTVSS | high polyreactivity
30 | QVQHVESGGGLVQAGGSLRLSCAASAIIFGDYAMGWYRQAPGKETELVAAINLDGTSTYYADSVKGRFTISRDIAKHSVYLQINSLKTEDTAGFYCAAVPDKYCCRVRRYLFEHNYWGQGTQVTVSS | low polyreactivity
31 | QVQHVESGGGLVQAGGSLRLSCAASGFIFASYAMGWSRQPPGKERELVAAISWRGGSTYYADSVKGRFTISRDNAKNTLYLQMNSLKPVDTAVYYCNAYVYVCTGRGYDTLDYWGQGTQVTVSS | low polyreactivity
32 | QVQHVESGGGLVQAGGSLRLSCAASGFIFGRYTMGWYRQAPGKERELVAAISRGGITNYADSVKGRFTISRDNAKNTVYLQMNSLKPEDTAVYYCNAVGVRPGFKGFDYWGQGTQVTVSS | high polyreactivity
33 | QVQHVESGGGLVQAGGSLRLSCAASGFIFPYYDMGWYRQAPGKEREFVAAITKSGGRTYYADSVKGRFTISRDNAKNPVYLQMNSLKPEDTAVYYCAAEPDTYWYTYDYWGQGTQVTVSS | low polyreactivity
34 | QVQHVESGGGLVQAGGSLRLSCAASGFIFWYYAMGWYRKAPGKERELVAAISSRGGSTYYADSVKGRFTISRDNAKNTVYLQLNSLKPEDTAGYYCATPSKALPPHGRAILDYWGQGTQVTVSS | high polyreactivity
35 | QVQHVESGGGLVQAGGSLRLSCAASGFILDTYGMGWYRQAPGKERELVAAISQSDVSTYYADSVKGRFTISRDNAKNTVDLQMNSLKPEDTAVYDCAADRGGLRWFWQVLYDYWGQGTQVTVSS | low polyreactivity
36 | QVQHVESGGGLVQAGGSLRLSCAASGFILPWYVMGWYRQAPGKERELVAAISGTGGSTYYADSVKGRFTISRDNAKNTVYLQMNSLKPEDTAVYYCAAGAFYAGYYWEFYYWGQGTQVTVSS | high polyreactivity
37 | QVQHVESGGGLVQAGGSLRLSCAASGFTFYRYTMGWYRQAPGKERELVAAISRGGRTYYADSVKGRFTISRDNAKNTVYLQMNSLKPEDTAVYYCAARTWIARRGRYNYWGQGTQVTVSS | high polyreactivity
38 | QVQHVESGGGLVQAGGSLRLSCAASGFTSWKYAMGWYRQAPGKERELVAAISQSGGRTYADSVKGRFTISRDNAKNTVYLQMNSLKPEDTAVYYCAARYPRRSQKYQYWGQGTQVTVSS | high polyreactivity
39 | QVQHVESGGGLVQAGGSLRLSCAASGFTYRRYAMGWYRQSPGKERELVAAISYRGGTYYADSVKGRFTISRDKAKNTLYLQMTSLIPEDTAVYYCNARYRGKYSSYGYWGQGTQVTVSS | high polyreactivity
40 | QVQHVESGGGLVQAGGSLRLSCAASGGIFHGYAMGWYRQAPGKERELVAAISRGGSTNYADSVKGRFTISRDNAKNTVYLQMNSLKPQDTAVYYCAARTRWFKGYDYWGQGTQVTVSS | high polyreactivity
41 | QVQHVESGGGLVQAGGSLRLSCAASGGTFSYNTMGWSRQAPGKERELVAVITFSGGSTYYADSVKGRFTISRDNAKNTVYLQMNSLKPEDTAVYYCNARSYPRWLRYDYWGQGTQVTVSS | low polyreactivity
42 | QVQHVESGGGLVQAGGSLRLSCAASGIIFHSYAMGWYRQAPGKERELVAAISKNVVSTYYADSVKGRFTISRDNAKNTVYLQMNSLKPEDTAVYYCATLKPYRARQRDYWGQGTQVTVSS | high polyreactivity
43 | QVQHVESGGGLVQAGGSLRLSCAASGITFFFNAIGWYRQATGKQRQLVAAITSRGGRTYYADSVKGRFTISRDNAKYTVYLQMNSLKPEDTAVYYCAATKKTGYYRYYYWGQGTQVTVSS | high polyreactivity
